Measurements: patent US20090028872A1 (Bristol-Myers Squibb, published 2009)
Values belong to the binder of their own block, whether it stands above or below them.

What was measured:
[1] = molecular target: T1, human CD70 expressed on the cell surface (human, UniProt P32970 1-193); experiment: cell-based or functional assay
T1 sequence (looked up): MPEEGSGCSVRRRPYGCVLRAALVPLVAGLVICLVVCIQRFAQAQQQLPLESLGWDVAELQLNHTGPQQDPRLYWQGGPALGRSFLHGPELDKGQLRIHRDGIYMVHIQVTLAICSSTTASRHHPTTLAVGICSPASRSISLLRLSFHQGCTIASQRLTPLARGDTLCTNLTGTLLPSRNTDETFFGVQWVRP

[2] = molecular target: T1, human CD70 expressed on the cell surface; experiment: flow cytometry titration on A498 cells, PE anti-human IgG
Method: Binding of the anti-CD70 human monoclonal antibodies was assessed by incubating 5×10⁵ cells with antibody at a starting concentration of 50 μg/ml and serially diluting the antibody at a 1:3 dilution. The cells were washed and binding was detected with a PE-labeled anti-human IgG Ab. Flow cytometric analyses were performed using a FACSCalibur flow cytometry (Becton Dickinson, San Jose, Calif.).

[3] = molecular target: human CD16 on effector cells (human, UniProt P08637 17-254); experiment: cell-based or functional assay
human CD16 on effector cells, sequence (P08637 17-254): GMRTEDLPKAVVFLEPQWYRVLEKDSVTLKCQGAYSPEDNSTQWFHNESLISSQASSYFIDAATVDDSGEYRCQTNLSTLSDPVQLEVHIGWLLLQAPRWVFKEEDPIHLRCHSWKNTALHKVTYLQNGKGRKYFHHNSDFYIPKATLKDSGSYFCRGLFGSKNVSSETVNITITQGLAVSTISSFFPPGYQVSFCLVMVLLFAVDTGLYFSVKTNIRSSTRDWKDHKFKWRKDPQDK

EC50 of decrease in ^3H-thymidine incorporation, Hum-Zap internalization assay, 786-O cells [1]: 0.942 nM
EC50 (read off the curve) [2]: ~7 nM
B1: anti-CD70 human monoclonal antibody 2H5 (antibody, V domains shown)
VH: QVQLVESGGGVVQPGRSLRLSCAASGFTFSSYIMHWVRQAPGKGLEWVAVISYDGRNKYYADSVKGRFTISRDNSKNTLYLQMNSLRAEDTAVYYCARDTDGYDFDYWGQGTLVTVSS
VL: EIVLTQSPATLSLSPGERATLSCRASQSVSSYLAWYQQKPGQAPRLLIYDASNRATGIPARFSGSGSGTDFTLTISSLEPEDFAVYYCQQRTNWPLTFGGGTKVEIK
notes: Fully human IgG with kappa light chain, from a hybridoma; human IgG1 isotype controls were used; also called HuMAb 2H5

amount of anti-CD16 3G8 needed to reverse inhibition, 2H5NF against 2H5 [3]: ~1000 fold
B2: non-fucosylated anti-CD70 human monoclonal antibody 2H5 (antibody, V domains shown)
VH: B1 VH
VL: B1 VL
modifications: antibody lacking in fucosyl residues (expressed in FUT8-deficient CHO cell line Ms704-PF)
